Data on one molecule can be found in paper PMC8189435, “Timer-based proteomic profiling of the ubiquitin-proteasome system reveals a substrate receptor of the GID ubiquitin ligase” (Molecular Cell, 2021).

For the test, the target named is T1, Gid1-tFT (chromosomally tagged Gid1-mCherry-sfGFP) (S. cerevisiae, UniProt P53076 1-958).
T1 construct: Gid1, subunit of the GID ubiquitin ligase complex, S. cerevisiae; endogenous locus tagged with mCherry-sfGFP; It was precipitated with anti-GFP antibodies from lysate, so other GID subunits are likely present with it; source: S. cerevisiae, chromosomally tagged (strain YMaM1083; YLZY0091 for gid5Δ), in lysate; not shown: mCherry-sfGFP timer (tFT), C-terminal, kept
T1 sequence (looked up): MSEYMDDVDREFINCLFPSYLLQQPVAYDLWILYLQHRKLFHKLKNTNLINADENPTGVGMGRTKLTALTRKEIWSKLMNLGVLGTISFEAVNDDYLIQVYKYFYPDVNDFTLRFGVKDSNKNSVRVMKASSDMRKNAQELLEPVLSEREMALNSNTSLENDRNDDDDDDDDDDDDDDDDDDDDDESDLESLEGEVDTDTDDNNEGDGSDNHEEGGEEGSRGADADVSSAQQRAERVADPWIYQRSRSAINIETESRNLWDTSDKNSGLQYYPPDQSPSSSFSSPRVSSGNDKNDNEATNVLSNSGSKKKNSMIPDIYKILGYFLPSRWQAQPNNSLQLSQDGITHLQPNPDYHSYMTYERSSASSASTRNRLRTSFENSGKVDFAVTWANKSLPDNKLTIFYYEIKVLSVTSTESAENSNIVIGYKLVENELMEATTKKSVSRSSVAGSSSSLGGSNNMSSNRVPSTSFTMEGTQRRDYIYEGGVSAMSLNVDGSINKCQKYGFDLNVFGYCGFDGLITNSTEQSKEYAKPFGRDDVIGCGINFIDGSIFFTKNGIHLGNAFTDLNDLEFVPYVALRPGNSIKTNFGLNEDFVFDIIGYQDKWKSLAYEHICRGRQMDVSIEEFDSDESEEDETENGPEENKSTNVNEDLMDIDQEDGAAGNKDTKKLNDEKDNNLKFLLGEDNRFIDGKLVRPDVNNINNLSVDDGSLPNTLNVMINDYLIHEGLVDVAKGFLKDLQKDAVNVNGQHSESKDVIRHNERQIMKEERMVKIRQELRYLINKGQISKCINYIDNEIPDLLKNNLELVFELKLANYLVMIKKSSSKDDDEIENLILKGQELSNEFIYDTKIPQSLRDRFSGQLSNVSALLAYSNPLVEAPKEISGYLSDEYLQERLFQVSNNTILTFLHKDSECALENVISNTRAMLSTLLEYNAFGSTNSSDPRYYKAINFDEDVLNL
Description: co-IP; tFT-tagged bait precipitated with rabbit anti-GFP on Dynabeads from yeast lysates (log phase, SC medium lacking histidine, 2% glucose); IP buffer 50 mM Tris-HCl pH 7.5, 100 mM NaCl, 1% Triton X-100, 2 mM EDTA; 2 h at 4°C; HA-tagged prey detected by anti-HA blot; WT or gid5Δ cells. The following applies: partners not purified.

B1: HA-Gid11 (Ylr149c/Gid11) (natural protein, S. cerevisiae, UniProt Q99296 1-730, looked up)
chain: MTIDGTGQSKEALQDERLNTGSDKVYQNYMMPALELYDAKVSINHWQLRDCIKPGSMNQSKLYYIYDHSIRVLDTDSSVLRSPVRRHNSIQPSNSGKNSTEKTSTKGSRTTGSYISKNLHVPSEKLVEFNFKPRCFTELNGLTVCGGLIGSDDKGFPSNWNRLAQDANISLPPPSQPINISKNISFPINSHYSNPNIWKGIVEFYNQETDTMMTFTLGQFINNCVTLYDRASMQFDLFACNNDGHLYQCDVSNRDVTLVKRYADLKFPLNNASLSHDGQTMVVSGDSNKFAVYNQNELTNQFSLHYDNHPSWGSSVNRVRRIPRFALPDESEYIENIYEAPNSDHGFYNSFSENDLQFATVFQNGTCAIYDIRNMATPMAEISSTRPHSHNGAFRVCRFSYGLDDLLFISEHQGRVHVVDTRNYVNHQVIVIPDKVNMEYINERKHNTNHNFTTNNNNENESNDSKNELQGADYRSLSRRRFSLPSMPNVTTEPWITMAQRIPKKYLEPQILPFPKVMDKISNESVLFSTKGSSSSDVAHPYKRRCSFRVRRVSTSAPTADYSNNNVNASLGTPAADSIATSSSNSAPQNLIDPLILSHQQASNDVFEDDEYYEAYNDVHSTYRVSSDYHGVSARAFESFLRPPSTPDLPSDDDNFAANSRNNRGTSNFLRRPVITTQESNEFSEENNISGIDWVEDRNGSSLIIGTDYGIMRWNINSWARRSFSSYDLC
notes: Gid11 (Ylr149c), S. cerevisiae, WD40/YVTN repeat-like domain protein; the last 4 residues are printed as 727-730, so the protein ends at residue 730; also called HA-YLR149C; source: S. cerevisiae, overexpressed from plasmid pRS413-GPDpr-HA-YLR149C, in lysate; not shown: HA, N-terminal, kept
Take B1: the “relative amount of co-immunoprecipitated HA-Gid11, normalized to precipitated Gid1-tFT, in gid5Δ cells compared with the WT” value was 0.43 relative to WT.
